Test results reported in article PMC11955279 (2025).

B1: AtSEP3 (…3), wild type, in pGADT7 [Arabidopsis thaliana] / AtAP1 (APETALA1), in pGBKT7 [Arabidopsis thaliana] (parent complex)
chain 1: MGRGRVELKRIENKINRQVTFAKRRNGLLKKAYELSVLCDAEVALIIFSNRGKLYEFCSSSSMLRTLERYQKCNYGAPEPNVPSREALAVELSSQQEYLKLKERYDALQRTQRNLLGEDLGPLSTKELESLERQLDSSLKQIRALRTQFMLDQLNDLQSKERMLTETNKTLRLRLADGYQMPLQLNPNQEEVDHYGRHHHQQQQHSQAFFQPLECEPILQIGYQGQQDGMGAGPSVNNYMLGWLPYDTNSI
chain 2: not shown

Variants of: B1
Experiment: yeast two-hybrid β-galactosidase activity assay; parent: 26; read off a plot

Variant | response
chain 1 L108A | ~15 β-galactosidase units
chain 1 L101A | ~14 β-galactosidase units
chain 1 L99A | ~16 β-galactosidase units

The next lines start with the values.

response | Variant
~13 β-galactosidase units | chain 1 L115A
~8.7 β-galactosidase units | chain 1 L120A
~11 β-galactosidase units | chain 1 L116A

Variants of: B1
Experiment: yeast two-hybrid β-galactosidase activity assay; parent: 51; read off a plot

response | Variant
~25 β-galactosidase units | chain 1 L99A, chain 1 L101A, chain 1 L108A, chain 1 L115A
~15 β-galactosidase units | chain 1 L99A, chain 1 L101A, chain 1 L108A, chain 1 L115A, chain 1 L116A
~21 β-galactosidase units | chain 1 L99A, chain 1 L101A, chain 1 L108A
~24 β-galactosidase units | chain 1 L99A, chain 1 L101A
~31 β-galactosidase units | chain 1 L99A
